The results in this text go back to patent US20250326813A1.

The target in this test is T1, human IL2Rβ Fc fusion protein (human) (UniProt P14784).
T1 sequence (looked up): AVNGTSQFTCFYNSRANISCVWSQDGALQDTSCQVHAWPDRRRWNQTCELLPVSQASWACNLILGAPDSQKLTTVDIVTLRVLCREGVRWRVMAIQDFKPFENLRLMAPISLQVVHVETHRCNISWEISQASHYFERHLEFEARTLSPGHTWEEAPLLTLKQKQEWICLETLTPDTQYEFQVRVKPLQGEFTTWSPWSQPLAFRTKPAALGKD
As to the kind of experiment: ELISA, single concentration, anti-flag detection, E. coli-produced clone.

B1: EP569 (clone 2021EP22-E03), E. coli-produced (ligand)
chain: APASSSTKKTQLQLEHLLLDLQMILNGINNYKNPKLTRMLTFKFYMPKKATELKHLQCLEEELKPLEEVLNLAQSKNFHLRRKESINHMIVVFPVLKGSETTFMCEYADETATIVEFLNRWITFSQSIISTLT
The molecule B1 gave an OD450 nm of 0.871 OD450.
